Data published in the DeepSol protein solubility set.

Assay: soluble on expression in E. coli; label from the status in PepcDB or PDB records

Row | Sequence | soluble on expression in E. coli
1 | MAHHHHHHMRRTAFSLMIVPPESHRYAKATFHEGVHRQAPGDSTPWRDVASPLNRFKMWWLAPAAKGTMTAAWCMTIVMGAYCFSIQQDAKGTYLLNNVLLRTLHEEAMRADANQERANELQEYLKQRLEKLEAGGKAASRNMGGDAVKEGLINHELEISRERVRSDSIHQRNQQLVDELLKVRQELAVTRKKHSAALSEIDKLQKLLKACT | not soluble
2 | MGSDKIHHHHHHMRTRDMLPILETLDESGIYSLEVWGGATFDACHRFLNENPWERLREIRKRVKNAKLQMLLRGQNLVGYRHYPDDIVEKFVQKTIENGLDVFRIFDALNDVRNLISSIKAAKKYNADHIQGTICYTISPVHTVEKYVEIANELAALEVDSICLKDMAGMLSPKMAYELVKALKKEVGLPINVHSHYTSGMASMALLKGVEAGAEMIDTCMSPLSSGTSHPPTESMVYALNELGYDTGVKLDILLEAREYFMKIREKYSGYLNPLSTIPDTRVLVYQIPGGMFSNLIAQLQEQNALDRLQEVLEEVPRVREDLGYPPLVTPTSQIVGVQAVINVLVGERYKVVTRETKDLVKGMYGRTPAPIKPEIVKKILGDEKPIDCRPADLLEPEFEKRKQELIEAGIENPSDEDVLLYALFPQTGLKFLKGEMVEEPFPVAGGKIEGSFEVEIDGQKYVVKVAPEK | not soluble
3 | MNNENKTHIADSVLDVIVVGGGINGAGIAADAAGRGLTVGLYEASDFASATSSASSKLIHGGLRYLEHYEFRLVSEALAEREVLLAKAPHIAKPMRFRLPHRPFLRPAWMIRAGLFLYDNLGKRTTLPASHSVDLAASGLLKSEITKGFEYSDCWVDDARLVILNAMAAEKNGAEVKNYCRVEKAIRVDNIWHVTVFDVQANVRFERKARALVNAAGPWVKQFFDDSLEDESPRNIRLVKGSHIVVPKIHNEEQAYILQNKDNRIVFVIPYMEDFSIIGTTDVEYKGDPRKVEISEEEVNYLIDVVNQHFVDQIKRDDVVWTYSGVRPLCDDESDSPQAITRDYTLELEQELDQAPLLSIFGGKLTTYRKLGETAMKMLNPYFAKMGTPWTRNVALPGGDFDYPRHQLVDNICCKHPWLAKETVTRYVNQFGTLTWTLLEGIECQSDMGELFAQGVYQAEIDYLIKHEFAKNAEDVLWRRTKLGLYLTEEEEKQIALYIESYLSHRHKVKLQNVILEHHHHHH | soluble
4 | MNPKIEDSEFNWENEDIVMKLVDEKGKAHPVSKAELLESLESRKLGLETRVLDKYHENHVAFENVLVLDAPQDLETIVNLLLPWYMGKTLTLFEGPLNYPDSSRLAQIISKHNVDIVLGSDYNYSIPNPEYLKLFPVPSLKLVDLPNFESISNYLTISR | not soluble
5 | MGSDKIHHHHHHMAFTSDSLAIFLAVLDAGSFSAAARKLGRVPSAVSMAIAQLEAELDLPLFDRATRKALPTNAALALEPQARQVICQLNLLDAQALQLHKGLEKRLTIAMAPELQTGRWSQPLEILAQAFPSLEVEVRSATQTEAIRLLHDGSVQLALVFERPGIDERESFLEAGSQLLVAVASPRHPAGQNSGSPLPEEAFAEQRQIIVASGKATGSDPRMVLSRRIWLTDSYLATLDLVQSGLGWAYLPQPLVEPLIASGALAEVRFDNMANRLRLWVDIIWIKSRPLGLGARRYLEVMRQLFEKEPPRA | not soluble
6 | GMNPFQNSFGGHIPQDVAGKQGENVIFIVYNLTDSPDTVDKVKDVCANFSAMIRSMRNRFPDMQFSCTMGFGADAWTRLFPDKGKPKELSTFSEIKGEKYTAVSTPGDLLFHIRAKQMGLCFEFASILDEKLKGAVVSVDETHGFRYMDGKAIIGFVDGTENPAVDENPYHFAVIGEEDADFAGGSYVFVQKYIHDMVAWNALPVEQQEKVIGRHKFNDVELSDEEKPGNAHNAVTNIGDDLKIVRANMPFANTSKGEYGTYFIGYASTFSTTRRMLENMFIGSPAGNTDRLLDFSTAITGTLFFVPSYDLLGELGE | soluble
7 | GMKLYKLLILDIDGTLRDEVYGIPESAKHAIRLCQKNHCSVVICTGRSMGTIQDDVLSLGVDGYIAGGGNYIQYHGELLYNQSFNQRLIKEVVCLLKKREVAFSIESQEKVFMNQKAKEIFETMNQLKGTNSCINKQHIQEKITYENNIEEYKSQDIHKICLWSNEKVFDEVKDILQDKMELAQRDISSQYYEIIQKDFHKGKAIKRLQERLGVTQKETICFGDGQNDIVMFQASDVTIAMKNSHQQLKDIATSICEDIFDNGIYKELKRRNII | soluble
8 | MGCAVSQESAIATVSSSSNTATTSTSSSNTSQKWATSRTSRPVTNVTQVSAIHTTSMDSGSSTVQLPSPRGSLTTAVSTSSSGAQRQMSANSERSLHTRPLSETAVILQSQAVKMSTGAGDSAVYEAVERGSLYSLDYRVYIKGPQGIVSPWHDIPLFANKDKRVYNMIVEIPRWTNAKMEMATKEPFSPIKQDEKKGVARFVHNIFPHKGYIWNYGALPQTWEDPNHVVPDTGAKGDNDPIDVIEVGSKVAGRGAVLQVKVLGTLALIDEGETDWKLVAIDVNDENADKLNDIDDVEKVYPGLLAASVEWFRNYKIPAGKPANEFAFNGEFKNREYAEKVIDETNEYWKTLIKEANPSLNTVSRVPEAVHQGTDEAAATAIGATPEHGANAPLPGDVDKWHFVQG | not soluble
9 | MKCRSKISLIAASLWLAAFSAQALEAKLKPEDLPLLVPEAQHATAAKRVTSRFTRSHYKQFNLDDQFSQAMFERYLEMLDYSRNIFTQADIDSFKAWSLQLDDQLKAGDNQIAYDLYNLSMEKRFERFQYALSLLDQEMTFDADESIELDRTKSPWPKDLKEINELWRQRVKYDALSLKLAGKEWPEIKETLDKRYNNAIKRLTQTKSEDVFQTYMNAFAREVDPHTSYLSPRNAEQFQSEMNLSLEGIGAVLQMTDDYTIIRSLVAGGPAALSKQLGEGDRIIGVGQEGEDVVDVVGWRLDDVVQLIKGPKGSKVKLLVLPEGKDAKSHVVTIVRDKIRLEDRAVKSEVIEKAGKKIGVLEVPSFYVGLAQDTEKLLAELKAKKVDGIIVDLRNNGGGALTEATALSGLFITSGPVVQVRDSYGRVNVNSDTDGSISYSGPMTVLINRYSASASEIFAAAMQDYGRAIILGENSFGKGTVQQHRSLNHIYDLFDKELGYVQYTIQKFYRIDGGSTQNKGVVPDIAYPTAIAPSETGESVEDNALPWDSIDKAKYERLNNFNTIIASLEAKHQQRVANDLEFGFIEQDIAKYRAEKDDNLLSLNEKVRKEESAKADEERLARINQRQKALGKSTYASLQDIPKDYEAPDAYLDESVNIMLDMISR | not soluble
10 | MSLGGSAMYHAQLGREYHEKALKYRSLAMRSLAHSGTSHSLDLHGATVREAKTIVRERVAAWWAKEADTSPNSIRPFVIVTGRGNHSIGLEARLLPAIVRLLQQDHWRFDAEHGQITVYGINRHSKEGHHHHHH | soluble
11 | MGSDKIHHHHHHARRNSTSRGSDSAARSPPSIRASHLKHCCFPIKEPTMSTINYSEKIPNNVNLADDRTLQRALEQWQPNFLSWWGDMGPDGSHGYDVYLRTAVSVDAGGWAHFDHVKMPDYRWGIFLTPGEQDRKIQFGEHKGEAAWQDVPGEHRANLRRIIVTQGDTEPASVEQQRHLGLTAPSMYDLRNLFQVNVEEGRHLWAMVYLLHRYFGRDGREEAEALLGRRSGDDDNPRILGAFNEKTPDWLAFYMFTYFTDRDGKFQLSALAESGFDPLARTTKFMLTEEAHHMFVGESGVSRVVQRTAQVMNELKTDDVNQIRAAGVIDLPTIQRYLNFHYSVTIDLFGADHSSNAATFYSSGLKGRYEETKRDDDHQLGGQSYKLLDVQDGKLVEREVPMLNAMNEVLRDDYIKDSVAGVNRWNKVLEKAGIEFRLTVPHKAFNRQIGTFAGTRVAPDGRVVSETEWAANEAKWLATPEDRAYVASLMGRVVEPGKFANWIAPPAMGINRQPIDFEYVRFN | not soluble
12 | VAIDTVITDMDGTLLVKKGDQIHPLNKEVLINWQADGKKLFLATGRLDLAILPFIHELNIKTPVISCNGGLVRDFTTGEILYKSNIELDLVHTVLETLEPLGVNYHIYTTERIIGPTNTGKIAFFNELNKTLSENEQVPITLTTDPFSVLREGEFPLKVLVIESDLEKRAEIKAALQGLPLSVLASASNLIDIMNEGIDKAKGLTYLADNGYINLNSTIAFGDNENDVGMIELAEIGVAMENGIPLALEKADKIAKHHDIGGLGLFMQEEIL | not soluble
13 | MSLDLPPGVVALVNGTRITQEQLDRAIAQSGAQANPQVAQALKQQLIARELFRQQAAKNPAYDKLPAVKQAMQEAHDAVITQAWLKDNIKPAPITEEQVKARYDAIVASLGDKEYKARVIQLGDDVTAAQVLAQLKQGGDFAKLAQQYSTAPNKVRGGDMDWVSFKVPVEEGKTQNLPLPLAREIAALGIGAASTAPVEVGSQRYIVKVEAARPTQVPGYDTVRPAIRQALETAELERVTVQVVGGLLKAAKIVQEGHHHHHH | soluble
